Experimental data from patent publication US20090317391A1 (Novartis, published 2009).
Where a chain is given by its changes, count along the chain named. Numbers in names are those of the source.

What was measured:
[1] = tested on: tm-PTPε A24C mutant, V5-tagged
[2] = tested on: tm-PTPε Q26C mutant, V5-tagged
[3] = tested on: tm-PTPε (wild type, stably expressed in NIH/3T3 and Rat-1 cells)
[4] = biological target: the molecule itself; assay: V5 immunoblot, non-reducing conditions (figure legend; self-dimer)
Description: Whole cell lysates were prepared from NIH/3T3 transiently transfected with vectors expressing either a V5-tagged wild-type PTPRε or PTPRε P20C, D21C, P22C, G23C, A24C, S25C, Q26C mutants, as well as from empty vector control cell lines. Cell lysis was carried out in the presence of 20 mM iodacetamide. Iodacetamide inhibits glutathione reductase, the enzyme responsible for disulfide bridge reduction in vivo, to minimize dimmer cleavage. All the constructs encode a V5-tagged protein. Samples were analyzed in reducing and non-reducing conditions and immunoblotted, for wild-type or tm-PTPε mutant protein expression by probing with a V5-specific antibody. All the proteins are expressed as monomers in reducing conditions (FIG. 20A). In non-reducing conditions, however, while wild-type tm-PTPε was unable to form a dimer (because it is lacking cysteines in its extracellular domain), all tm-PTPε mutants formed dimers (FIG. 20B).

[5] = biological target: T1, SEMA4D-V5 (expressed from pDESTSEMA4D-V5) (UniProt Q92854 22-862, limits assumed); assay: co-immunoprecipitation (anti-HA or anti-V5) and western blot from lysates of co-transfected 293T cells
T1 construct: Control membrane protein co-transfected in 293T cells
T1 sequence (looked up): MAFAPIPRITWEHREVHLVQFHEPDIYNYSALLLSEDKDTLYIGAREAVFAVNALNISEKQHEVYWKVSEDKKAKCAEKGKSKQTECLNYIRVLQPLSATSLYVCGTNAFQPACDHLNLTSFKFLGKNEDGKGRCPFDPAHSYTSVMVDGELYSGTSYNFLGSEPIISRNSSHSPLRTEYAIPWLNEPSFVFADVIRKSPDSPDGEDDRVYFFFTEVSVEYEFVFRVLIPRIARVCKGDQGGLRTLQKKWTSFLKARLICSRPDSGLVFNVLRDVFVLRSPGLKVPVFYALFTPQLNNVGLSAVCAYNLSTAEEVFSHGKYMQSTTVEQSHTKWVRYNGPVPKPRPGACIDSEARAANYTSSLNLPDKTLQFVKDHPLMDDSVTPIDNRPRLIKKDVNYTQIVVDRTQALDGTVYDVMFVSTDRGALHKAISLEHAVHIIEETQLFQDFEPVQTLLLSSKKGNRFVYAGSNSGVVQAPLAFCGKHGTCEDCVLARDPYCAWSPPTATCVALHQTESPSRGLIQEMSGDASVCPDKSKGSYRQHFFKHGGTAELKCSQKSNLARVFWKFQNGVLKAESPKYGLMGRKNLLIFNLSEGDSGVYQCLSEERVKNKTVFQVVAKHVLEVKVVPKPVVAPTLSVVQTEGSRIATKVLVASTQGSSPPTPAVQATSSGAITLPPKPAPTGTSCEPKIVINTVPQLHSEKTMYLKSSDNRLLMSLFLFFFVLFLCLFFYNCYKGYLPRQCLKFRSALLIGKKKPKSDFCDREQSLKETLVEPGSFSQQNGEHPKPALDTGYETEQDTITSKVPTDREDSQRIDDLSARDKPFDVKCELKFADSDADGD
Description: Cells were harvested 72-hours later by scraping in 1 ml PBS. The pellets were lyzed on ice for 60 mins. in 500 ul lysis buffer: 50 mM Tris-HCl; pH7.5, 150 mM NaCl, 1 mM EDTA, 1% NP40, 0.25% Deoxycholate, 50 mMNaF, 20 mM Na3OV4 and protease inhibitors. 1 mM PMSF (0.3M stock solution in DMSO) was added to the lysis buffer before use. DNA was sheared with a needle. Lysates were then spun down for 10 mins. at 14,000 rpm. 200 ul cell lysates were incubated, overnight at 4° C. with gentle rocking, with lug of either rabbit polyclonal antibody to HA or V5 epitope tag (abcam; ab9110-100 and ab9116-100, respectively).
The next morning, a suspension protein A/G (50:50) agarose beads was washed twice in PBS then in lysis buffer. The beads (50% slurry) were incubated on ice in the lysis buffer for one hour. 30 ul of the proteinA/G suspension were added to the lysates and the mixture incubated for 4 hours at 4° C. with gentle rocking. Beads were then washed 3 times with 1 ml lysis buffer. Beads were resuspended in 30 μl sample buffer.
After protein transfer to membrane blots. Membranes were blocked over-night in PBST-5% Milk. The next day blots of the immunoprecipitation with V5 antibody were incubated with HA hybridoma supernatant (dilution 1:1000) for 1 hour whereas blots of the immunoprecipitation with HA antibody were incubated with V5-HRP (dilution 1:5000)

Src
Src-Y529 phosphorylation levels (immunoblot with a Src-Y529 phospho-specific antibody) [1]: Both clones of tm-PTPε A24C mutant were unable to dephosphorylate Src-Y529 | Src-Y529 phosphorylation levels (immunoblot with a Src-Y529 phospho-specific antibody) [2]: Like wild-type tm-PTPε, PTPRεQ26C mutant was able to dephosphorylate Src-Y529 | Src-Y529 phosphorylation levels (immunoblot with a Src-Y529 phospho-specific antibody) [3]: tm-PTPε overexpression cause Src-Tyr-529 dephosphorylation in NIH/3T3 and Rat-1 cells

B1: tm-PTPε P20C mutant, V5-tagged (receptor, not shown: small tags and cut ends)
chain: LRGNETTADSNETTTTSGPCDPGASQPLLAWLLLPLLLLLLVLLLAAYFFRFRKQRKAVVSTSDKKMPNGILEEQEQQRVMLLSRSPSGPKKYFPIPVEHLEEEIRIRSADDCKQFREEFNSLPSGHIQGTFELANKEENREKNRYPNILPNDHSRVILSQLDGIPCSDYINASYIDGYKEKNKFIAAQGPKQETVNDFWRMVWEQKSATIVMLTNLKERKEEKCHQYWPDQGCWTYGNIRVCVEDCVVLVDYTIRKFCIQPQLPDGCKAPRLVSQLHFTSWPDFGVPFTPIGMLKFLKKVKTLNPVHAGPIVVHCSAGVGRTGTFIVIDAMMAMMHAEQKVDVFEFVSRIRNQRPQMVQTDMQYTFIYQALLEYYLYGDTELDVSSLEKHLQTMHGTTTHFDKIGLEEEFRKLTNVRIMKENMRTGNLPANMKKARVIQIIPYDFNRVILSMKRGQEYTDYINASFIDGYRQKDYFIATQGPLAHTVEDFWRMIWEWKSHTIVMLTEVQEREQDKCYQYWPTEGSVTHGEITIEIKNDTLSEAISIRDFLVTLNQPQARQEEQVRVVRQFHFHGWPEIGIPAEGKGMIDLIAAVQKQQQQTGNHPITVHCSAGAGRTGTFIALSNILERVKAEGLLDVFQAVKSLRLQRPHMVQTLEQYEFCYKVVQDFIDIFSDYANFK
notes: Transiently expressed in NIH/3T3 cells; also called PTPRε P20C
binding result [4]: binds

B2: tm-PTPε S25C mutant, V5-tagged (receptor, not shown: small tags and cut ends)
chain: B1 chain with C20P, S25C
notes: Transiently expressed in NIH/3T3 cells; also called PTPRε S25C
binding result [4]: binds

B3: tm-PTPε D21C mutant, V5-tagged (receptor, not shown: small tags and cut ends)
chain: B1 chain with C20P, D21C
notes: Transiently expressed in NIH/3T3 cells; also called PTPRε D21C
binding result [4]: binds

B4: tm-PTPε P22C mutant, V5-tagged (receptor, not shown: small tags and cut ends)
chain: B1 chain with C20P, P22C
notes: Transiently expressed in NIH/3T3 cells; also called PTPRε P22C
binding result [4]: binds

B5: tm-PTPε G23C mutant, V5-tagged (receptor, not shown: small tags and cut ends)
chain: B1 chain with C20P, G23C
notes: Transiently expressed in NIH/3T3 cells; also called PTPRε G23C
binding result [4]: binds

B6: HA-tm-PTPε (expressed from pDisplayHA tm-PTPε-FL#9) (receptor, not shown: small tags and cut ends)
chain: B1 chain with C20P
notes: Transiently expressed in 293T cells and tested from cell lysates; The tag is placed N-terminal on the strength of the name
binding result [5]: no binding

B7: tm-PTPε A24C mutant, V5-tagged (receptor, not shown: small tags and cut ends)
chain: B1 chain with C20P, A24C
notes: Transiently expressed in NIH/3T3 cells (dimer blot) and stably in Rat-1 clones #8 and #26 (Src-Y529 blot); also called PTPRε A24C; PTPRε.A24C
binding result [4]: binds

B8: tm-PTPε Q26C mutant, V5-tagged (receptor, not shown: small tags and cut ends)
chain: B1 chain with C20P, Q26C
notes: Transiently expressed in NIH/3T3 cells (dimer blot) and stably in Rat-1 clones #1 and #30 (Src-Y529 blot); also called PTPRε Q26C; PTPRεQ26C
binding result [4]: binds
